For the test, the target named is T1, 甲状腺素受体相互作用蛋白15 (thyroid receptor interacting protein 15, TRIP15) (human, UniProt P61201 1-443).
T1 construct: Purified prokaryotic expression product of the TRIP15 gene; also called TRIP15蛋白; 人TRIP15蛋白
In words: indirect ELISA, phage antibody on purified TRIP15 antigen. A general note: ELISA stands for enzyme-linked immunosorbent assay.

T1 sequence (P61201 whole entry): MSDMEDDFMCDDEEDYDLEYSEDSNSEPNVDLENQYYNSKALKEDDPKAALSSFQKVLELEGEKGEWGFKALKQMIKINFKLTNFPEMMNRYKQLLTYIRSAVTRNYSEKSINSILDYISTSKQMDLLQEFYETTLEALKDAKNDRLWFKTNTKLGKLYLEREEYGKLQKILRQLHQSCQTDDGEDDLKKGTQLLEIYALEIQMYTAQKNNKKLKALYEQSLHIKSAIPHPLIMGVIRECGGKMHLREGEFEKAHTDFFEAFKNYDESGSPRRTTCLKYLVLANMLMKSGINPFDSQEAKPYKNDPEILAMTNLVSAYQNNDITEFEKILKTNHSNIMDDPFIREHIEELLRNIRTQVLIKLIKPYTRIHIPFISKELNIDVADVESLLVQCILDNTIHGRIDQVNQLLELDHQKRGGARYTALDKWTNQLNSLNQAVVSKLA

B1: 抗TRIP15噬菌体抗体 (anti-TRIP15 phage-displayed human single-chain antibody, positive clone) (scFv, V domains shown)
VH: EVQLLESGGGLVQPGGSLRLSCAASGFTFSSYAMSWVRQAPGKGLEWVSSISNDGLKTLYADSVKGRFTISRDNSKNTLYLQMNSLRAEDTAVYYCAKNTGSFDYWGQGTLVTV
VL: DIQMTQSPSSLSASVGDRVTITCRASQSISSYLNWYQQKPGKAPKLLIYRASNLQSGVPSRFSGSGSGTDFTLTISSLQPEDFATYYCQQVLRRPATFGQGTKVEIKR
notes: also called 阳性克隆的噬菌体抗体; 针对TRIP15抗原的scFv
Regarding B1, the binding result is recorded as “binds”.

(Values after patent publication CN1618813A (SHANGHAI HUMAN GENOME RES CT, dated 2005).)
